Assay results from patent publication US12097241B2, “Methods of treating kidney failure, and/or improving or stablizing renal function using modified relaxin polypeptides” (BRISTOL-MYERS SQUIBB COMPANY, priority 2017, dated 2024).
Entries after “also recorded” stand apart in the source; their conditions may differ. Where two headings read alike, the source gives them in different places. Marks after values point to notes of the source that are not given here. Square brackets hold non-standard residues; d marks the D form. Ends that are not written are not given here. Phe(4-Ac) = CC(=O)c1ccc(C[C@H](N)C(=O)O)cc1

Columns and labels:
[1] = tested on: renal tubular epithelial cells; assay: Rat toxicity studies, kidney histopathology; type: in vivo, Sprague Dawley rats; settings: rats
Method: FIGS. 7A-7D. PEG-related renal cortical tubule epithelial vacuolation in female Sprague Dawley rats. Kidney from rats treated subcutaneously (SQ) once a day with vehicle or relaxin analogs. […] FIG. 7A: Vehicle (150 mM Arg in 10 mM citrate buffer pH 5.5) SQ for 10 days. FIG. 7B: AQ1-PEG36-Glu-C13-COOH (1.5 kD PEG) SQ at 40 mg/kg/day for 7 days. FIG. 7C: AQ1-20-kDa-PEG (20 kD PEG) SQ at 15 mg/kg/day for 10 days. FIG. 7D: AQ1-GGGGS-Glu^γ (SEQ ID NO: 139)-C14-COOH SQ at 40 mg/kg for 7 days. Magnification 40×, H&E.
AQ1-20 kDa-PEG was given to rats by subcutaneous administration at doses of 1, 5, and 15 mg/kg/day for 10 days. Following the final dose animals were euthanized, dissected, and kidney histopathology was performed. […] In contrast, vacuoles were not observed in renal tubular epithelial cells of rats dosed with Vehicle (150 mM Arg in 10 mM citrate buffer pH 5.5) subcutaneously for 10 days (FIG. 7A).
AQ1-PEG36-Glu-C13-COOH was given to rats by subcutaneous administration at doses of 10 and 40 mg/kg/day for 7 days. Following the final dose animals were euthanized, dissected, and kidney histopathology was performed.
AQ1-GGGGS-Glu^γ (SEQ ID NO: 139)-C14-COOH was given to rats by subcutaneous administration at doses of 5, 20, and 40 mg/kg/day for 7 days. Following the final dose animals were euthanized, dissected, and kidney histopathology was performed.

Solubility observations = settings: data not shown
[2] = In vivo pharmacokinetic (PK) studies in rats; parameters: species or system Sprague-Dawley rats; settings: for AUC(0-inf): read-out: Rat PK AUC Total; for level at time molar at 24 h: read-out: Rat PK C24
How it was run: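 Male Sprague-Dawley rats (n=3) given a single 1 mg/kg IV or SC dose of relaxin constructs in 20 mM histidine, 750 mM NaCl, pH 6.0; jugular serum sampled to 72 h. Serum relaxin by ELISA; Cmax, AUCinf, C24 and half-life from non-compartmental analysis of individual profiles.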

[3] = Rat renal blood flow studies; type: in vivo, Sprague Dawley rats; settings: 1 mg/kg intravenously; for % change in RBF over baseline: anesthetized male Sprague Dawley rats, renal blood flow recorded for 45 min
Method: Male Sprague Dawley rats (˜250-300 g) were anesthetized with sodium pentobarbital (50 mg/kg), the trachea was cannulated with PE-205 tubing to maintain airway patency, and temperature was maintained at 37° C. with a heated surgical plate. A 1.4 F pressure catheter (Millar Inc., Houston, TX) was advanced into the right carotid artery to measure aortic blood pressure. The right jugular vein was cannulated with PE-50 tubing for administration of test articles. The left kidney was exposed by a retroperitoneal incision, and a Doppler flow probe (Model 0.5 VB, Transonic System Inc., Ithaca, NY) was attached to the left renal artery to monitor blood flow. Sodium pentobarbital (15 mg/kg, intraperitoneal) was supplemented after completion of these surgical procedures. Following a 10-15 min equilibration, the relaxin was administered at 1 mg/kg intravenously in a dosing volume of 0.15 to 1.82 mL/kg over 30 seconds via an infusion pump (Harvard Apparatus, Holliston, MA). Blood pressure, heart rate and renal blood flow were continuously recorded for 45 min after relaxin administration using a Millar MPVS Ultra Signal Conditioning unit connected to a desktop computer running LabChart 7-Pro data acquisition software (ADInstruments, Dunedin, New Zealand) (Table 5). Table 5. Rat renal blood flow changes (abbreviations as in Table 3).

[4] = in vivo; cited from earlier work
[5] = rat, male Sprague-Dawley rats, single SC dose 1.0 mg/kg, serum ELISA
[6] = rats, SC dose 1.0 mg/kg, adjusted from 0.2 mpk

Row | Molecule | AUC(0-inf) [2, 5] | level at time molar at 24 h [2, 5] | % change in RBF over baseline [3] | effect on renal blood flow (in words) ([3]; rats) | further results
1 | CC[C@H](C)[C@@H]1NC(=O)[C@H](C)NC(=O)[C@H]([C@@H](C)CC)NC(=O)[C@H](CCC(N)=O)NC(=O)[C@H](C)NC(=O)[C@H](CCCNC(=N)N)NC(=O)[C@H](C(C)C)NC(=O)[C@H](CC(C)C)NC(=O)[C@H](CCC(=O)O)NC(=O)[C@H](CCCNC(=N)N)NC(=O)CNC(=O)[C@@H](NC(=O)[C@H](CC(C)C)NC(=O)[C@H](CCCCN)NC(=O)[C@@H](NC(=O)[C@@H](NC(=O)[C@H](CCC(=O)O)NC(=O)[C@H](CCC(=O)O)NC(=O)[C@H](CCSC)NC(=O)[C@H](Cc2c[nH]c3ccccc23)NC(=O)[C@H](CO)NC(=O)[C@H](C)N)C(C)C)[C@@H](C)CC)CSSC[C@@H]2NC(=O)[C@@H](NC(=O)[C@H](CCCCN)NC(=O)[C@H](CC(N)=O)NC(=O)[C@H](C)NC(=O)[C@H](CC(C)C)NC(=O)[C@H](C)NC(=O)[C@H](CO)NC(=O)[C@H](Cc3ccc(O)cc3)NC(=O)[C@H](CC(C)C)NC(=O)[C@@H](N)Cc3ccc(/C(C)=N/OCCNC(=O)CNC(=O)CNC(=O)CNC(=O)CNC(=O)[C@H](CO)NC(=O)CC[C@H](NC(=O)CCCCCCCCCCCCCC(=O)O)C(=O)O)cc3)CSSC[C@H](NC(=O)CNC(=O)[C@H](C(C)C)NC(=O)[C@H](Cc3c[nH]cn3)NC2=O)C(=O)N[C@@H]([C@@H](C)O)C(=O)N[C@@H](CCCCN)C(=O)N[C@@H](CCCNC(=N)N)C(=O)N[C@@H](CO)C(=O)N[C@@H](CC(C)C)C(=O)N[C@@H](C)C(=O)N[C@@H](CCCNC(=N)N)C(=O)N[C@@H](Cc2ccccc2)C(=O)N[C@H](C(=O)O)CSSC[C@@H](C(=O)NCC(=O)N[C@@H](CCSC)C(=O)N[C@@H](CO)C(=O)N[C@H](C(=O)N[C@@H](Cc2c[nH]c3ccccc23)C(=O)N[C@@H](CO)C(=O)O)[C@@H](C)O)NC1=O [AQ1-GGGGS-Glu^γ-C14-COOH] | 2.31 µM·h | 17 nM |  |  | vacuoles in renal tubular epithelial cells ([1]; subcutaneous 5, 20 and 40 mg/kg/day for 7 days, listed as AQ1-GGGGS-Glu^γ (SEQ ID NO: 139)-C14-COOH): Vacuoles are not observed; also recorded: no evidence of test-article related vacuoles; solubility profile (Solubility observations): favorable solubility profile
2 | CC[C@H](C)[C@@H]1NC(=O)[C@H](C)NC(=O)[C@H]([C@@H](C)CC)NC(=O)[C@H](CCC(N)=O)NC(=O)[C@H](C)NC(=O)[C@H](CCCNC(=N)N)NC(=O)[C@H](C(C)C)NC(=O)[C@H](CC(C)C)NC(=O)[C@H](CCC(=O)O)NC(=O)[C@H](CCCNC(=N)N)NC(=O)CNC(=O)[C@@H](NC(=O)[C@H](CC(C)C)NC(=O)[C@H](CCCCN)NC(=O)[C@@H](NC(=O)[C@@H](NC(=O)[C@H](CCC(=O)O)NC(=O)[C@H](CCC(=O)O)NC(=O)[C@H](CCSC)NC(=O)[C@H](Cc2c[nH]c3ccccc23)NC(=O)[C@H](CO)NC(=O)[C@H](C)N)C(C)C)[C@@H](C)CC)CSSC[C@@H]2NC(=O)[C@@H](NC(=O)[C@H](CCCCN)NC(=O)[C@H](CC(N)=O)NC(=O)[C@H](C)NC(=O)[C@H](CC(C)C)NC(=O)[C@H](C)NC(=O)[C@H](CO)NC(=O)[C@H](Cc3ccc(O)cc3)NC(=O)[C@H](CC(C)C)NC(=O)[C@@H](N)Cc3ccc(/C(C)=N/OCCNC(=O)CCOCCOCCOCCOCCOCCOCCOCCOCCOCCOCCOCCOCCOCCOCCOCCOCCOCCOCCOCCOCCOCCOCCOCCOCCOCCOCCOCCOCCOCCOCCOCCOCCOCCOCCOCCOCCNC(=O)CC[C@H](NC(=O)CCCCCCCCCCCCC(=O)O)C(=O)O)cc3)CSSC[C@H](NC(=O)CNC(=O)[C@H](C(C)C)NC(=O)[C@H](Cc3c[nH]cn3)NC2=O)C(=O)N[C@@H]([C@@H](C)O)C(=O)N[C@@H](CCCCN)C(=O)N[C@@H](CCCNC(=N)N)C(=O)N[C@@H](CO)C(=O)N[C@@H](CC(C)C)C(=O)N[C@@H](C)C(=O)N[C@@H](CCCNC(=N)N)C(=O)N[C@@H](Cc2ccccc2)C(=O)N[C@H](C(=O)O)CSSC[C@@H](C(=O)NCC(=O)N[C@@H](CCSC)C(=O)N[C@@H](CO)C(=O)N[C@H](C(=O)N[C@@H](Cc2c[nH]c3ccccc23)C(=O)N[C@@H](CO)C(=O)O)[C@@H](C)O)NC1=O [AQ1-PEG36-Glu-C13-COOH] | 1 µM·h | 9.7 nM |  |  | vacuoles in renal tubular epithelial cells ([1]; subcutaneous 10 and 40 mg/kg/day for 7 days): marked cortical tubular vacuolation; also recorded: Vacuoles were observed
3 | CCCCCCCCCCCCCC(=O)NCCO/N=C(\C)c1ccc(C[C@H](NC(=O)CNC(=O)[C@@H]2CSSC[C@@H](C(=O)O)NC(=O)[C@H](Cc3ccccc3)NC(=O)[C@H](CCCNC(=N)N)NC(=O)[C@H](C)NC(=O)[C@H](CC(C)C)NC(=O)[C@H](CO)NC(=O)[C@H](CCCNC(=N)N)NC(=O)[C@H](CCCCN)NC(=O)[C@H]([C@@H](C)O)NC(=O)[C@@H]3CSSC[C@H](NC(=O)[C@H](CCCCN)NC(=O)[C@H](CC(N)=O)NC(=O)[C@H](C)NC(=O)[C@H](CC(C)C)NC(=O)[C@H](C)NC(=O)[C@H](CO)NC(=O)[C@H](Cc4ccc(O)cc4)NC(=O)[C@H](CC(C)C)NC(=O)[C@@H](N)CC(N)=O)C(=O)N[C@@H](CSSC[C@H](NC(=O)[C@H](CC(C)C)NC(=O)[C@H](CCCCN)NC(=O)[C@@H](NC(=O)[C@@H](NC(=O)[C@H](CCC(=O)O)NC(=O)[C@H](CCC(=O)O)NC(=O)[C@H](CCSC)NC(=O)[C@H](Cc4c[nH]c5ccccc45)NC(=O)[C@H](CO)NC(=O)[C@H](C)N)C(C)C)[C@@H](C)CC)C(=O)NCC(=O)N[C@@H](CCCNC(=N)N)C(=O)N[C@@H](CCC(=O)O)C(=O)N[C@@H](CC(C)C)C(=O)N[C@@H](C(C)C)C(=O)N[C@@H](CCCNC(=N)N)C(=O)N[C@@H](C)C(=O)N[C@@H](CCC(N)=O)C(=O)N[C@@H]([C@@H](C)CC)C(=O)N[C@@H](C)C(=O)N[C@@H]([C@@H](C)CC)C(=O)N2)C(=O)N[C@@H](Cc2c[nH]cn2)C(=O)N[C@@H](C(C)C)C(=O)NCC(=O)N3)C(=O)N[C@@H](CO)C(=O)N[C@H](C(=O)N[C@@H](Cc2c[nH]c3ccccc23)C(=O)N[C@@H](CO)C(=O)O)[C@@H](C)O)cc1 [BM25/AN1-C13-CH3] |  |  | −100^a % |  | effect on renal blood flow (in words) ([3]; rats, 1 mg/kg): impaired renal blood flow; also recorded: decreased renal blood flow; death of animals after administration ([3]; rats, necropsy pale kidneys, 1 mg/kg): fatal
4 | AQ1-20kDa PEG: AQ1 relaxin conjugated to PEG with an average MW of 20 kDa (chain 1 XLYSALANKCCHVGCTKRSLARFC; chain 2 ASWMEEVIKLCGRELVRAQIAICGMSTWS; non-natural residues) |  |  | +21% | increased renal blood flow | Rat PK AUC Total [2, 6]: 1.475 µM·h; level at time molar at 24 h [2, 6]: 39 nM
5 | BM25/AN1: human relaxin 2 with pAcF at B chain position 25 and asparagine at A chain position 1 (SEQ ID NO: 36, 37) (chain 1 NLYSALANKCCHVGCTKRSLARFC; chain 2 ASWMEEVIKLCGRELVRAQIAICG[Phe(4-Ac)]STWS; disulfide (positions not given here); ends not checked) |  |  | −20% | impaired renal blood flow | 
6 | Serelaxin |  |  |  |  | first-phase pharmacokinetic half-life [4]: 5 to 15 min
